Source: patent US9957299B2, “Peptidomimetic macrocycles” (AILERON THERAPEUTICS, INC., priority 2010, dated 2018)
Numbered stars: 1 amine (or outer) side, 2 acyl side, 3 side chain; on linkers, the order of the positions; unused ones are H or OH. Bridge positions count the residues as written; N and C are the ends. Square brackets hold non-standard residues; d marks the D form. Peptide text beside a SMILES is read from it. X2 = C[C@@](Cc1c[nH]c2cc(Cl)ccc12)(N[*:1])C(=O)[*:2]; R8 = C=CCCCCCC[C@@](C)(N)C(=O)O; S5 = C=CCCC[C@](C)(N)C(=O)O; Nle = CCCC[C@H](N)C(=O)O

Experiment: circular dichroism
Conditions: aqueous, '0% TFE' (buffer not stated; general: 50 mM potassium phosphate pH 7 or water); pH ns; ns °C; 25-50 uM (general text)

Compound | helicity [%]
CC(=O)N[C@]1(C)CCCCCCCCCCC[C@@](C)(C(=O)N[C@@H](CC(C)C)C(=O)N[C@@H](Cc2c[nH]c3ccccc23)C(=O)N[C@@H](CCCNC(=N)N)C(=O)N[C@@H](CC(C)C)C(=O)N[C@@H](CC(C)C)C(=O)NC(C)(C)C(=O)N[C@@H](CCC(N)=O)C(=O)N[C@@H](CC(N)=O)C(N)=O)NC(=O)[C@H](CO)NC(=O)[C@H](Cc2ccccc2)NC(=O)[C@H]([C@@H](C)O)NC(=O)[C@H](CCC(N)=O)NC(=O)[C@H](CCC(N)=O)NC(=O)[C@H](CO)NC1=O | 66.7
CCCC[C@H](NC(C)=O)C(=O)N1CCC[C@H]1C(=O)N[C@@H](CCCNC(=N)N)C(=O)N[C@@H](Cc1ccccc1)C(=O)N[C@]1(C)CCCCCCCCCCC[C@@](C)(C(=O)N[C@@H](CCC(N)=O)C(=O)N[C@@H](CC(N)=O)C(N)=O)NC(=O)[C@H](CC(C)C)NC(=O)[C@H](CC(C)C)NC(=O)[C@H](CCCNC(=N)N)NC(=O)[C@H](Cc2c[nH]c3ccccc23)NC(=O)[C@H](Cc2ccc(O)cc2)NC(=O)[C@H](CC(N)=O)NC1=O | 61.6
CC(=O)N[C@@H](CCC(N)=O)C(=O)N[C@@H](CO)C(=O)N[C@@H](CCC(N)=O)C(=O)N[C@@H](CCC(N)=O)C(=O)N[C@H](C(=O)N[C@@H](Cc1ccccc1)C(=O)N[C@]1(C)CCCCCCC=CCCC[C@@](C)(C(=O)N[C@@H](CCC(N)=O)C(N)=O)NC(=O)[C@H](CC(C)C)NC(=O)[C@H](CC(C)C)NC(=O)[C@H](CCCNC(=N)N)NC(=O)[C@H](Cc2c[nH]c3ccccc23)NC(=O)[C@H](CC(C)C)NC(=O)[C@H](CC(N)=O)NC1=O)[C@@H](C)O (Ac-QSQQTF[R8]NLWRLL[S5]Q-NH2; staple 7-14) | 77.8
CC(=O)N[C@@H](CCC(N)=O)C(=O)N[C@@H](CO)C(=O)N[C@@H](CCC(N)=O)C(=O)N[C@@H](CCC(N)=O)C(=O)N[C@H](C(=O)N[C@@H](Cc1ccccc1)C(=O)N[C@@H]1CCCCCCC=CCCC[C@@H](C(=O)N[C@@H](CCC(N)=O)C(=O)N[C@@H](CC(N)=O)C(N)=O)NC(=O)[C@H](CC(C)C)NC(=O)[C@H](CC(C)C)NC(=O)[C@H](CCCNC(=N)N)NC(=O)[C@H](Cc2c[nH]c3ccccc23)NC(=O)[C@H](CC(C)C)NC(=O)[C@H](CC(N)=O)NC1=O)[C@@H](C)O | 50.5
CC(=O)N[C@@H](CC(C)C)C(=O)N[C@H](C(=O)N[C@@H](Cc1ccccc1)C(=O)N[C@]1(C)CCCCCCC=CCCC[C@@](C)(C(=O)N[C@@H](CO)C(=O)N[C@@H](C)C(N)=O)NC(=O)[C@H](CC(C)C)NC(=O)[C@H](CCC(N)=O)NC(=O)[C@H](C)NC(=O)[C@H](Cc2c[nH]c3ccccc23)NC(=O)[C@H](Cc2ccc(O)cc2)NC(=O)[C@H](Cc2c[nH]cn2)NC1=O)[C@@H](C)O | 80.8
CC(=O)N[C@@H](CCC(N)=O)C(=O)N[C@@H](CO)C(=O)N[C@@H](CCC(N)=O)C(=O)N[C@@H](CCC(N)=O)C(=O)N[C@H](C(=O)N[C@@H](Cc1ccccc1)C(=O)N[C@]1(C)CCCCCCC=CCCC[C@@](C)(C(=O)N[C@@H](CCC(N)=O)C(=O)N[C@@H](CC(N)=O)C(N)=O)NC(=O)[C@H](CC(C)C)NC(=O)[C@H](CC(C)C)NC(=O)[C@H](CCCNC(=N)N)NC(=O)[C@](C)(Cc2c[nH]c3cc(Cl)ccc23)NC(=O)[C@H](CC(C)C)NC(=O)[C@H](CC(N)=O)NC1=O)[C@@H](C)O (Ac-QSQQTF[R8]NL[X2]RLL[S5]QN-NH2; staple 7-14) | 60.9
CC(=O)N[C@@H](CCC(N)=O)C(=O)N[C@@H](CO)C(=O)N[C@]1(C)CCCC=CCCCC2(CCCC=CCCC[C@@](C)(C(=O)N[C@@H](CC(C)C)C(=O)N[C@@H](CC(C)C)C(=O)NC(C)(C)C(=O)N[C@@H](CCC(N)=O)C(=O)N[C@@H](CC(N)=O)C(N)=O)NC(=O)[C@H](Cc3c[nH]c4ccccc34)NC(=O)[C@H](CC(C)C)NC(=O)[C@H](CC(N)=O)NC2=O)NC(=O)[C@H](Cc2ccccc2)NC(=O)[C@H]([C@@H](C)O)NC(=O)[C@H](CCC(N)=O)NC1=O (stereo partly shown) | 0
Ac-TSFAEYWNLLSP-NH2 | 6.8
CC(=O)N[C@@H](CC(C)C)C(=O)N[C@H](C(=O)N[C@@H](Cc1ccccc1)C(=O)N[C@]1(C)CCCCCCCCCCC[C@@](C)(C(=O)N[C@@H](CO)C(N)=O)NC(=O)[C@H](CC(C)C)NC(=O)[C@H](CCC(N)=O)NC(=O)[C@H](CCCNC(=N)N)NC(=O)[C@H](Cc2c[nH]c3cc(Cl)ccc23)NC(=O)[C@H](Cc2ccc(O)cc2)NC(=O)[C@H](Cc2c[nH]cn2)NC1=O)[C@@H](C)O | 74.2
CC(=O)N[C@@H](CCCNC(=N)N)C(=O)N[C@@H](CO)C(=O)N[C@@H](CCC(N)=O)C(=O)N[C@@H](CCC(N)=O)C(=O)N[C@H](C(=O)N[C@@H](Cc1ccccc1)C(=O)N[C@]1(C)CCCCCCC=CCCC[C@@](C)(C(=O)N[C@@H](CCC(N)=O)C(=O)N[C@@H](CC(N)=O)C(N)=O)NC(=O)[C@H](CC(C)C)NC(=O)[C@H](CC(C)C)NC(=O)[C@H](CCCNC(=N)N)NC(=O)[C@H](Cc2c[nH]c3ccccc23)NC(=O)[C@H](CC(C)C)NC(=O)[C@H](CC(N)=O)NC1=O)[C@@H](C)O (Ac-RSQQTF[R8]NLWRLL[S5]QN-NH2; staple 7-14) | 62.3
CC(=O)N[C@@H](CC(C)C)C(=O)N[C@H](C(=O)N[C@@H](Cc1ccccc1)C(=O)N[C@@H](CCC(=O)O)C(=O)N[C@@H](Cc1c[nH]cn1)C(=O)N[C@@H](Cc1ccc(O)cc1)C(=O)N[C@@H](Cc1c[nH]c2ccccc12)C(=O)N[C@@H](C)C(=O)N[C@@H](CCC(N)=O)C(=O)N[C@@H](CC(C)C)C(=O)N[C@H](C(=O)N[C@@H](CO)C(N)=O)[C@@H](C)O)[C@@H](C)O | -0.5
CC(=O)N[C@@H](CC(C)C)C(=O)N[C@H](C(=O)N[C@@H](Cc1ccccc1)C(=O)N[C@]1(C)CCCCCCC=CCCC[C@@](C)(C(=O)N[C@@H](CO)C(N)=O)NC(=O)[C@H](CC(C)C)NC(=O)[C@H](CCC(N)=O)NC(=O)[C@H](CCCNC(=N)N)NC(=O)[C@H](Cc2c[nH]c3ccccc23)NC(=O)[C@H](Cc2ccc(O)cc2)NC(=O)[C@H](Cc2c[nH]cn2)NC1=O)[C@@H](C)O (Ac-LTF[R8]HYWRQL[S5]S-NH2; staple 4-11) | 59.5
CC(=O)N[C@H](C(=O)N[C@@H](CO)C(=O)N[C@@H](Cc1ccccc1)C(=O)N[C@]1(C)CCCCCCCCCCC[C@@](C)(C(=O)N2CCC[C@H]2C(N)=O)NC(=O)[C@H](CC(C)C)NC(=O)[C@H](CC(C)C)NC(=O)[C@H](CC(N)=O)NC(=O)[C@H](Cc2c[nH]c3ccccc23)NC(=O)[C@H](Cc2ccc(O)cc2)NC(=O)[C@H](CCC(N)=O)NC1=O)[C@@H](C)O | 2.6
CCCC[C@H](NC(C)=O)C(=O)N1CCC[C@H]1C(=O)N[C@@H](CCCNC(=N)N)C(=O)N[C@@H](Cc1ccccc1)C(=O)N[C@]1(C)CCCCCCC=CCCC[C@@](C)(C(N)=O)NC(=O)[C@H](CC(C)C)NC(=O)[C@H](CC(C)C)NC(=O)[C@H](CCCNC(=N)N)NC(=O)[C@H](Cc2c[nH]c3ccccc23)NC(=O)[C@H](Cc2ccc(O)cc2)NC(=O)[C@H](CC(N)=O)NC1=O (Ac-[Nle]PRF[R8]NYWRLL[S5]-NH2; staple 5-12) | 54.4
CC(=O)N[C@@H](CC(C)C)C(=O)N[C@H](C(=O)N[C@@H](Cc1ccccc1)C(=O)N[C@]1(C)CCCCCCCCCCC[C@@](C)(C(=O)N[C@@H](CO)C(N)=O)NC(=O)[C@H](CC(C)C)NC(=O)[C@H](CCC(N)=O)NC(=O)[C@H](C)NC(=O)[C@H](Cc2c[nH]c3cc(Cl)ccc23)NC(=O)[C@H](Cc2ccc(O)cc2)NC(=O)[C@H](Cc2c[nH]cn2)NC1=O)[C@@H](C)O | 69.5
Ac-QSQQTFSNLWRLLPQN-NH2 | 5
